Test results published in patent US9371374.

Legend:
Experiment in all cases: EIA, captured mAb
[1] = biological target: biotinylated HCV core peptide 134-154 (Peptide 1) (HCV-1)
[2] = biological target: biotinylated HCV core peptide 141-161 (Peptide 2) (HCV-1)
[3] = biological target: biotinylated HCV core peptide 151-171 (Peptide 3) (HCV-1)

Binder | Reactivity (OD492) [1] [OD] | Reactivity (OD492) [2] [OD] | Reactivity (OD492) [3] [OD]
HCV 208A-134 (antibody, V domains shown) VH: QGQMQQSGAELAKPGASVKLSCKTSGFTFSSSYISWLKQKPGQSLEWIAWIYAGTGNTNYNQKFTDKAQLTVDTSSSTAYMQLSSLTTEDSAIYYCAISGTGFTYWGQGTLVTVSA VL: EVLMTQSPLSLPVSLGDQASISCRSSQSLEHTNGNTYLEWFLQRPGQPPKLLIYKVSSRFSGVPDRFSGSGSGTDFTLKISRVEAEDLGVYYCFQGSHVPFTFGSGTKLAIKR | 2.06 | 0.08 | 0.06
HCV 208A-159 (antibody, V domains shown) VH: QLQQSGPAQVKPGASVMISCKTSGYTFTENAMHWVKQSHGKSLEWIGGVNPNNGDTIFNQKFKDKAALTVDKSSSTAFMELRSLTSEESTVYYCVRRELDFFDYWGQGTSVTVSS VL: DIVLTQSPASLAVSLGQRATISCRASQSVSTSRYSYVHWYQQKPGQPPKLLIKYAANLESGVPARFSGSGSGTDFTLNIHPVAEEDAAAYYCQHSWEFPFTFGSGTKLEIKR | 0.15 | 3.77 | 0.19
HCV 208A-207 (antibody, V domains shown) VH: QGQLQQPGAEFVKPGASLKLSCRASGYTFTSYWIHWVKQRPGQGLEWIGEIDPSDSYINQNQKFRGKATLTVDKSSSTAYMELSGLTSEDSAVYYCARHYYGVLDSWGQGTTLTVSS VL: DIVLTQSPATLSVTPGDRVSLSCRASQRIYNYLHWYQQKSHESPRLLTKYASQSISGIPSRFSGSGSGTDFILTINSVETEDFGMYFCQQSNSWPLTFGAGTKLELRR | 1.24 | 0.17 | 0.08
HCV 208A-1064 (antibody, V domains shown) VH: EVQLQQSGPELVKPGASVKISCKTSGYTFTEYAMHWMKQSHGKSLEWIGGINPTNGDTIYNQKFKDKAKLTVDRSSSTAYMELRSLTSDDSALFYCARRELDYFASWGQGTTLTVSS VL: DIVLTQSPASLIVSLGQTATISCRASQSVSTSRFSYLHWIQQKPGQPPKLLIKYASNLESGVPVRFSGSGSGTDFTLNIHPVEEEDTATYFCQHSWEFPFTFGSGTKLKIKR | 0.1 | 3.5 | 0.12
HCV 208A-133 (antibody, V domains shown) VH: QLQQSGPVLVGPGASVMISCKTSGYTFTENAMHWVEQSHGKSLEWIGGVNPNNGDTIFNQKFKGKATLTVDKSSSTAFMEFRSLTSEESTVYYCVRRELDFFDYWGQGTSVTVSS VL: DIVLTQSPASLAVSLGQRATISCRASQSVSTSRYSYMHWYQQKPGQPPKLLIKYASNLESGVPARFSGSGSGTDFTLNIHPVAEEDTATYYCQHSWEFPFTFGSGTKLEIKR | 0.1 | 3.68 | 0.13
HCV 208A-126 (antibody, V domains shown) VH: QLQQSGPVLVKPGASVMISCKTSGYTFTENAMHWVKQSHGKSLEWIGGVNPNNGDTIFNQKFKGKATLTVDKSSNTAFTELRSLPSEESTVYYCVRRGLDFFDYWGQGTSVTVSS VL: DIVLTQSPASLAVSLGQRATISCRASQSVSTSRYSYMHWYQQKPGQPPKLLIKYASNLESGVPARFSGSGSGTDFTLNIHPVAEEDTAAYYCQHSWEFPFTFGSGTKLEIKR | 0.2 | 2.08 | 0.1
HCV 208A-210 (antibody, V domains shown) VH: QVQLQQSGPELVKPGASMRISCKASGYTFTSYYVHWIKQRPGQGLEWIGCIYPGDVNTDYNEKFKGKATLTADKSSSTAYMQVSTLTSEDSAIYFCVLYYYGSFAYWGQGTLVTVSA VL: EIVLTQSPAITAASLGQNVTITCRASSSVSYMHWYRQKSGTSPQLWIYEISRRASGVPARFRASGSGTSYSLTISSMEAEDAAIYYCQQWNYPLTFGAGTKLEVKR | 0.06 | 1.15 | 0.05
